Results reported in US8936806B2, “Periostin induces proliferation of cardiomyocytes and promotes cardiac regeneration” (Children's Medical Center Corporation, priority 2007, dated 2015).

How the values were obtained:
[1] = test system: primary neonatal rat ventricular cardiomyocytes; assay: Cardiomyocyte proliferation by cell count (hemocytometer); type: cell-based
Experimental: To determine cardiomyocyte proliferation, primary neonatal rat ventricular cardiomyocytes were quantified by counting with a hemocytometer after 3 days and 6 days of stimulation. To determine cardiomyocyte survival, primary neonatal rat ventricular cardiomyocytes were pre-treated with 500 ng/mL periostin or buffer for 30 min and then exposed to 0.5 μM doxycycline or 100 ng/mL TNFα for 24 hr and quantified by counting. Corresponding samples were stained with an antibody directed against tropomyosin as a cardiomyocyte marker to control for the percentage of differentiated cardiomyocytes. Apoptotic cardiomyocyte nuclei were determined after 24 hr with the In situ Cell Death Detection Kit (Roche, Indianapolis, Ind.) in combination with staining for troponin I.

[2] = test system: primary neonatal rat ventricular cardiomyocytes; assay: Cell cycle markers (Ki-67, phosphorylated Rb, cyclin A) in neonatal cardiomyocytes; type: cell-based
Source text: (§1) Primary neonatal rat ventricular cardiomyocytes were isolated using the Neomyts kit (Cellutron, Highland Park, N.J.), seeded at a density of 10^5 cells/cm^2 onto gelatin-coated cover slips, stimulated for 3 days, and labeled with BrdU for the terminal 2 days. Primary adult ventricular cardiomyocytes were isolated from male (300 gm) Wistar rats (Charles River Laboratories) and maintained as described (Engel, F. B. et al. p38 MAP kinase inhibition enables proliferation of adult mammalian cardiomyocytes. Genes Dev 19, 1175-87 (2005)). Adult cardiomyocytes were stimulated daily for 9 days and labeled with 30 μM BrdU for the terminal 3 days. Cardiomyocytes were stimulated with periostin (500 ng/mL) and FGF (100 ng/mL). Inhibiting antibodies were added at a concentration of 10 μg/mL, cRGD at 10 μM, U0126 at 10 μM, PD98059 at 1 μM, LY294002 at 10 μM, and Wortmannin at 0.1 μM 30 min prior to stimulation. The vehicle used to dissolve factors or chemicals was added to unstimulated samples, which were then processed together with the test samples.
(§2) DNA-synthesis was analyzed by visualization of BrdU uptake and cytokinesis was determined by detection of the cleavage furrow and the midbody with an antibody against aurora B kinase as described (Engel, F. B. et al. p38 MAP kinase inhibition enables proliferation of adult mammalian cardiomyocytes. Genes Dev 19, 1175-87 (2005)). Signals were visualized with secondary antibodies conjugated to Alexa 488, Alexa 546, Alexa 594, and Alexa 647 (Invitrogen). Nuclei were visualized with 4′,6′-diamidino-2-phenylindole (DAPI, Invitrogen). For image acquisition, the value for γ was set at 1 and the lookup table settings were linear.

[3] = test system: Adult male Sprague-Dawley rats; assay: Rat model of myocardial infarction: echocardiography and catheterization; type: in vivo; conditions: for Maximum left ventricular elastance / Maximum rate of left ventricular pressure rise / Preload-recruitable stroke work / Slope of end-systolic pressure-volume relationship: catheterization, 12 weeks
Experimental: Adult male Sprague-Dawley rats (300 gm, Charles River Laboratories) underwent experimental myocardial infarction as described (del Monte, F. et al. Abrogation of ventricular arrhythmias in a model of ischemia and reperfusion by targeting myocardial calcium cycling. Proc Natl Acad Sci USA 101, 5622-7 (2004)). The survival rate was 67%. Gelfoam loaded with 100 μg of recombinant periostin or with buffer were applied over the myocardial infarction at the time of surgery. Rats received 3 intraperitoneal BrdU injections (70 μmol/kg body weight) with a half-life of 2 hr every 48 hr over a period of 7 days. Echocardiography and hemodynamic catheterization were performed as described (Prunier, F. et al. Am J Physiol Heart Circ Physiol (2006)).

[4] = test system: primary adult rat ventricular cardiomyocytes; assay: Cytokinesis (aurora B kinase) in primary adult rat ventricular cardiomyocytes; type: cell-based
Source text: as §1, §2

[5] = 12 weeks after MI, listed as Periostin

B1: periostin: Recombinant periostin, purified from HEK293 cells expressing the full-length human cDNA; secreted protein of 834 amino acids (Seq ID. No. 1) (protein, listed as Homo sapiens)
chain: MIPFLPMFSLLLLLIVNPINANNHYDKILAHSRIRGRDQGPNVCALQQILGTKKKYFSTCKNWYKKSICGQKTTVLYECCPGYMRMEGMKGCPAVLPIDHVYGTLGIVGATTTQRYSDASKLREEIEGKGSFTYFAPSNEAWDNLDSDIRRGLESNVNVELLNALHSHMINKRMLTKDLKNGMIIPSMYNNLGLFINHYPNGVVTVNCARIIHGNQIATNGVVHVIDRVLTQIGTSIQDFIEAEDDLSSFRAAAITSDILEALGRDGHFTLFAPTNEAFEKLPRGVLERFMGDKVASEALMKYHILNTLQCSESIMGGAVFETLEGNTIEIGCDGDSITVNGIKMVNKKDIVTNNGVIHLIDQVLIPDSAKQVIELAGKQQTTFTDLVAQLGLASALRPDGEYTLLAPVNNAFSDDTLSMVQRLLKLILQNHILKVKVGLNELYNGQILETIGGKQLRVFVYRTAVCIENSCMEKGSKQGRNGAIHIFREIIKPAEKSLHEKLKQDKRFSTFLSLLEAADLKELLTQPGDWTLFVPTNDAFKGMTSEEKEILIRDKNALQNIILYHLTPGVFIGKGFEPGVTNILKTTQGSKIFLKEVNDTLLVNELKSKESDIMTTNGVIHVVDKLLYPADTPVGNDQLLEILNKLIKYIQIKFVRGSTFKEIPVTVYTTKIITKVVEPKIKVIEGSLQPIIKTEGPTLTKVKIEGEPEFRLIKEGETITEVIHGEPIIKKYTKIIDGVPVEITEKETREERIITGPEIKYTRISTGGGETEETLKKLLQEEVTKVTKFIEGGDGHLFEDEEIKRLLQGDTPVRKLQANKKVQGSRRRLREGRSQ
increase of cardiomyocyte proliferation ([1]; after 3 days): 3.6 fold
increase of cardiomyocyte proliferation ([1]; after 6 days): 4.2 fold
increase of cardiomyocytes expressing cyclin A [2]: 11 fold
increase of cardiomyocytes with phosphorylated Rb [2]: 12 fold
increase of proliferating cardiomyocytes (Ki-67) [2]: 4 fold
Ejection fraction ([3]; 1 week after MI): 53%
End-diastolic dimension ([3]; 1 week after MI): 8.1 ± 0.4 mm
End-systolic dimension ([3]; 1 week after MI): 6.1 ± 0.4 mm
Shortening fraction ([3]; 1 week after MI, periostin Gelfoam 100 μg): 25%
Shortening fraction ([3]; 1 week after MI, periostin Gelfoam 100 μg, listed as Periostin): 25.2 ± 2.1%
Ejection fraction ([3]; 1 week after MI, listed as Periostin): 52.6 ± 2.9%
Ejection fraction ([3]; 12 weeks after MI): 66%
End-diastolic dimension ([3]; 12 weeks after MI): significantly smaller
End-systolic dimension ([3]; 12 weeks after MI): 6 ± 0.5 mm
Shortening fraction ([3]; 12 weeks after MI): 33%
Ejection fraction [3, 5]: 65.9 ± 3.8%
End-diastolic dimension [3, 5]: 8.4 ± 0.2 mm
Shortening fraction [3, 5]: 33.0 ± 2.6%
Maximum left ventricular elastance [3]: higher
Maximum rate of left ventricular pressure rise [3]: higher
Preload-recruitable stroke work [3]: higher
Slope of end-systolic pressure-volume relationship [3]: steeper slope
Maximum left ventricular elastance ([3]; listed as Periostin): 2.5 ± 1
Maximum rate of left ventricular pressure rise ([3]; listed as Periostin): 4821 ± 513 mm Hg/s
Preload-recruitable stroke work ([3]; listed as Periostin): 68.6 ± 13.9 mm Hg
Slope of end-systolic pressure-volume relationship ([3]; listed as Periostin): 1.4 ± 0.2 mm Hg/μL
cytokinesis, of all differentiated cardiomyocytes ([4]; 9 days stimulation): 0.5±0.2%
BrdU-labeled nuclei in cardiomyocyte cytokineses ([4]; N=15): 100%
first detection of cytokinesis ([4]; time-course of stimulation): ≥ 6 days
